Here are results for 2 substances from PMC10090080.

For orientation: stoichiometry N means the number of molecules, sites or subunits per partner or assembly.

Test [1] addresses pUL93 (human cytomegalovirus strain AD169). The experiment in a line: cryo-EM structure.
For test [2], the target named is portal protein pUL104 (human cytomegalovirus strain AD169). The experiment in a line: cryo-EM structure.

In test [1], pUL77 (natural protein) came in with a stoichiometry N of 2.

In test [2], portal protein pUL104 (natural protein) returned a stoichiometry N of 12.
